In the experiment the target is DesC, NADH-dependent 20α-hydroxysteroid dehydrogenase of Clostridium scindens ATCC 35704 (Clostridium scindens ATCC 35704). Put plainly: crystal structure.

The record followed here is paper doi:10.1101/2020.06.12.149468.

By stoichiometry N is commonly meant the number of molecules, sites or subunits per partner or assembly. As for “DesC, NADH-dependent 20α-hydroxysteroid dehydrogenase of Clostridium scindens ATCC 35704 (enzyme)”, the stoichiometry N came to 4.
